The numbers were not newly measured in patent publication US20200216492A1, “USE OF C-TERMINALLY EXTENDED PEPTIDES TO DISRUPT INHIBITOR NK CELL RECEPTOR INTERACTIONS WITH MHC I” (La Jolla Institute for Allergy and Immunology, priority 2016, published 2020), which cites them from elsewhere.

As a reminder, the Kd is the equilibrium constant for the complex coming apart.

This data set addresses HLA-B*57:01 (Homo sapiens, UniProt P01889, D201E/D98Y/E176V/E187L/E204Q/E69M/E70A/G107R/I90N/K202T/L105A/L119I/N104I/N87E/Q89R/Q94S/R106L/R155S/R180L/R86G/S101N/S121V/S35A/S48A/T118I/V36M/Y140S/Y91M). The conditions noted are these: previously determined; read-out: binding affinity KD to HLA-B*57:01.

B1: KIR3DL1: inhibitory killer immunoglobulin receptor on NK cells binding HLA-B*57:01 (protein, UniProt P43629 22-444, looked up)
Killer cell …: HMGGQDKPFLSAWPSAVVPRGGHVTLRCHYRHRFNNFMLYKEDRIHIPIFHGRIFQESFNMSPVTTAHAGNYTCRGSHPHSPTGWSAPSNPVVIMVTGNHRKPSLLAHPGPLVKSGERVILQCWSDIMFEHFFLHKEGISKDPSRLVGQIHDGVSKANFSIGPMMLALAGTYRCYGSVTHTPYQLSAPSDPLDIVVTGPYEKPSLSAQPGPKVQAGESVTLSCSSRSSYDMYHLSREGGAHERRLPAVRKVNRTFQADFPLGPATHGGTYRCFGSFRHSPYEWSDPSDPLLVSVTGNPSSSWPSPTEPSSKSGNPRHLHILIGTSVVIILFILLLFFLLHLWCSNKKNAAVMDQEPAGNRTANSEDSDEQDPEEVTYAQLDHCVFTQRKITRPSQRPKTPPTDTILYTELPNAKPRSKVVSCP
As to B1, the Kd was 17 µM.
